Data taken from the supplement of paper PMC12042874.
± gives the uncertainty stated by the source.

Experiment: amyloid nucleation score (Sup35N fusion, yeast selection) (log enrichment); library NNK3; higher = more nucleation; inactive = no reads after selection
Outline: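 Sup35N fusions to peptides of 20 random codons were expressed in psi-negative yeast, induced 24 hours with 100 μM copper sulfate, and grown 7 days at 30°C on medium lacking adenine and uracil. Input and output plasmid inserts were sequenced by Illumina. The nucleation score is the DiMSum log enrichment of output over input reads, centred on the mode score of non-aggregating sequences. Sequences with under 100 input reads were excluded.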
With VGRYPSLVSLNDTCNDVTRI the amyloid nucleation score was “inactive”.
With VGSLDVIVINQKFSVFVMSC the amyloid nucleation score was “inactive”.
With VGTFRGSEGPRFVLVV the amyloid nucleation score was -0.486 ± 1.9.
In the case of VGTIVFVFSFASWPRVGYIR, the amyloid nucleation score is reported as “inactive”.
With VGVFV the amyloid nucleation score was “inactive”.
In the case of VGVMLYWVKEFFVL, the amyloid nucleation score is reported as “inactive”.
For VGVNWTFPMPLSTL, the amyloid nucleation score was “inactive”.
In the case of VGWNQDGDHMKSLKVAWARW, the amyloid nucleation score is reported as “inactive”.
In the case of VHKYMGEVLHQYFPLMLYLF, the amyloid nucleation score is reported as 0.807 ± 0.1.
For VHSCLLCHWSFYWLLFFMRS, the amyloid nucleation score was “inactive”.
For VHTVTSCNLKDLLMKIHCTR, the amyloid nucleation score was “inactive”.
For VHVRLQAPFPEAL, the amyloid nucleation score was “inactive”.
In the case of VHVYCNWKFRDEIRANSTRR, the amyloid nucleation score is reported as “inactive”.
With VIAVSYNFTWFKTSIFN the amyloid nucleation score was 1.31 ± 0.11.
VICLLPLT gave an amyloid nucleation score of 0.099 ± 0.3.
In the case of VICRKLVMPFVESNRWHWSN, the amyloid nucleation score is reported as “inactive”.
For VIDDHMFQRKRQMVLKKQLN, the amyloid nucleation score was “inactive”.
Substance VIFLGAYHNSLLNRAMHSGH has an amyloid nucleation score of 1.45 ± 0.12.
VIFSITANIRAQFLFYCYRV showed an amyloid nucleation score of -0.083 ± 0.81.
For VIHQIMIMYGVYPASMKLFF, the amyloid nucleation score was 1.77 ± 0.098.
VIICIAGGLPMRTH gave an amyloid nucleation score of 1.71 ± 0.06.
Substance VIIINRVIENRWSDRHEITN has an amyloid nucleation score of 2.57 ± 0.053.
For VIIYI, the amyloid nucleation score was “inactive”.
With VIKTLTHSFHLTNGFGTSYI the amyloid nucleation score was “inactive”.
In the case of VIKVWLLCRRIVSVQFLAP, the amyloid nucleation score is reported as “inactive”.
For VIMADA, the amyloid nucleation score was “inactive”.
For VIMSRCPVHIDMVPRDAQPL, the amyloid nucleation score was “inactive”.
With VINSR the amyloid nucleation score was “inactive”.
With VIPFPFNLGDYCRMFDPRRS the amyloid nucleation score was “inactive”.
In the case of VIRVTWGYNWNNYVKHVYRS, the amyloid nucleation score is reported as 0.35 ± 0.55.
With VISFDVWSNRMCFLMGMIWH the amyloid nucleation score was “inactive”.
With VISFLMKLRWYCTVHGSGGM the amyloid nucleation score was “inactive”.
Substance VISLRLVLNWNVTGVSLLGW has an amyloid nucleation score of 0.611 ± 0.16.
VIVARFLFMGTTFHVPDVRP showed an amyloid nucleation score of 1.97 ± 0.075.
VIVLNFALLRASLSAGFLMS gave an amyloid nucleation score of 0.405 ± 0.28.
Work on VIYVKSIMSFSLCDFDY yielded an amyloid nucleation score of 3.11 ± 0.074.
With VKEMFKF the amyloid nucleation score was “inactive”.
VKNIWIDVTMGDQLFIPNFY showed an amyloid nucleation score of 2.36 ± 0.051.
In the case of VKRGLVCETSLCRYFFLFGQ, the amyloid nucleation score is reported as 1.35 ± 0.089.
VKSFVSFCSGTLSPLMFRSG showed an amyloid nucleation score of 0.535 ± 0.19.
With VKTNVCTTYGHY the amyloid nucleation score was “inactive”.
Substance VKWLLGMSEWKG has an amyloid nucleation score of -0.877 ± 2.4.
In the case of VLASWASYPTGSQSKGGERT, the amyloid nucleation score is reported as “inactive”.
In the case of VLDVVY, the amyloid nucleation score is reported as “inactive”.
With VLFKYTSRIMDCVKTLKPLK the amyloid nucleation score was “inactive”.
Substance VLGNRRFSGLFGEYQGKTTG has an amyloid nucleation score of -0.593 ± 1.1.
For VLGPDGRVKYVAKDSNIMVI, the amyloid nucleation score was “inactive”.
Substance VLGYDGAGKVVIFDVNLAGL has an amyloid nucleation score of 1.87 ± 0.083.
With VLIMPA the amyloid nucleation score was “inactive”.
Work on VLIYLDRCRNFDEKGFHNFC yielded an amyloid nucleation score of 0.448 ± 0.21.
For VLKMAACNPGTNSLSTPGCG, the amyloid nucleation score was “inactive”.
VLNFWGAVFPIIMLFYESVY showed an amyloid nucleation score of 2.03 ± 0.096.
For VLPNIQFFYCMCWVMLYLPF, the amyloid nucleation score was “inactive”.
Substance VLRFFM has an amyloid nucleation score of 0.399 ± 0.23.
With VLRLFDTNPHDSREVAYFYF the amyloid nucleation score was “inactive”.
With VLRRLGWICL the amyloid nucleation score was “inactive”.
For VLSHSHGSWSRESYKLLRLD, the amyloid nucleation score was “inactive”.
With VLSRSKRTGISNYLCNLCEI the amyloid nucleation score was “inactive”.
With VLSTVFKAKPNHNRAFMG the amyloid nucleation score was 0.063 ± 0.78.
In the case of VLTRTTRLTHSTTSICLLVL, the amyloid nucleation score is reported as “inactive”.
With VLVSVILYIYYDDCFYSWSF the amyloid nucleation score was “inactive”.
In the case of VMAYRHAGRRFSDPKSIKIS, the amyloid nucleation score is reported as “inactive”.
With VMKNSTIILSFTFLSPKVSF the amyloid nucleation score was 2.16 ± 0.069.
With VMMDWILQIVAYSSDHTGSK the amyloid nucleation score was “inactive”.
VMNLEPRSHVWYVTVFSHAS gave an amyloid nucleation score of 1.68 ± 0.096.
